Data set [1] deals with HeLa Kyoto. Description: solubility change mitosis vs G1/S (difference of NP-40 vs SDS log2 ratios) (log2 ratio difference); higher = more soluble in mitosis.
For data set [2], the system named is HeLa Kyoto. Description: solubility in G1/S (NP-40 vs SDS abundance) (log2 ratio); higher = more soluble. The following applies: cell cycle stage: G1/S.

Here are results for ten sequences from the supplement of paper PMC5998384.
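Wherever solubility change mitosis vs G1/S (difference of NP-40 vs SDS log2 ratios) is given: synchronized HeLa Kyoto cells (double thymidine block for G1/S, nocodazole release for mitosis), protein amounts in NP-40 versus SDS lysates quantified by mass spectrometry, three biological replicates.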
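Wherever solubility in G1/S (NP-40 vs SDS abundance) is given: HeLa Kyoto cells arrested at G1/S by double thymidine block, proteins quantified by TMT10plex mass spectrometry in mild NP-40 versus SDS extracts, three biological replicates.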

For “MLFTVSCSKMSSIVDRDDSSIFDGLVEEDDKDKAKRVSRNKSEKKRRDQFNVLIKELGSMLPGNARKMDKSTVLQKSIDFLRKHKEITAQSDASEIRQDWKPTFLSNEEFTQLMLEALDGFFLAIMTDGSIIYVSESVTSLLEHLPSDLVDQSIFNFIPEGEHSEVYKILSTHLLESDSLTPEYLKSKNQLEFCCHMLRGTIDPKEPSTYEYVKFIGNFKSLNSVSSSAHNGFEGTIQRTHRPSYEDRVCFVATVRLATPQFIKEMCTVEEPNEEFTSRHSLEWKFLFLDHRAPPIIGYLPFEVLGTSGYDYYHVDDLENLAKCHEHLMQYGKGKSCYYRFLTKGQQWIWLQTHYYITYHQWNSRPEFIVCTHTVVSYAEVRAERRRELGIEESLPETAADKSQDSGSDNRINTVSLKEALERFDHSPTPSASSRSSRKSSHTAVSDPSSTPTKIPTDTSTPPRQHLPAHEKMVQRRSSFSSQSINSQSVGSSLTQPVMSQATNLPIPQGMSQFQFSAQLGAMQHLKDQLEQRTRMIEANIHRQQEELRKIQEQLQMVHGQGLQMFLQQSNPGLNFGSVQLSSGNSSNIQQLAPINMQGQVVPTNQIQSGMNTGHIGTTQHMIQQQTLQSTSTQSQQNVLSGHSQQTSLPSQTQSTLTAPLYNTMVISQPAAGSMVQIPSSMPQNSTQSAAVTTFTQDRQIRFSQGQQLVTKLVTAPVACGAVMVPSTMLMGQVVTAYPTFATQQQQSQTLSVTQQQQQQSSQEQQLTSVQQPSQAQLTQPPQQFLQTSRLLHGNPSTQLILSAAFPLQQSTFPQSHHQQHQSQQQQQLSRHRTDSLPDPSKVQPQ [CLOCK]”, the “solubility change mitosis (log2)” value in the data set with HeLa Kyoto [1] is -0.192. Further, the “solubility in G1/S (log2)” value in the data set with HeLa Kyoto [2] came to 0.134.

For the sequence “MLQKPRNRGRSGGQAERDRDWSHSGNPGASRAGEDARVLRDGFAEEAPSTSRGPGGSQGSQGPSPQGARRAQAAPAVGPRSQKQLELKVSELVQFLLIKDQKKIPIKRADILKHVIGDYKDIFPDLFKRAAERLQYVFGYKLVELEPKSNTYILINTLEPVEEDAEMRGDQGTPTTGLLMIVLGLIFMKGNTIKETEAWDFLRRLGVYPTKKHLIFGDPKKLITEDFVRQRYLEYRRIPHTDPVDYEFQWGPRTNLETSKMKVLKFVAKVHNQDPKDWPAQYCEALADEENRARPQPSGPAPSS [NDNL2]”, the “solubility change mitosis (log2)” value in the data set on HeLa Kyoto [1] is 0.116. Moreover, the “solubility in G1/S (log2)” value in the data set on HeLa Kyoto [2] is 0.289.

Regarding “MLRTAMGLRSWLAAPWGALPPRPPLLLLLLLLLLLQPPPPTWALSPRISLPLGSEERPFLRFEAEHISNYTALLLSRDGRTLYVGAREALFALSSNLSFLPGGEYQELLWGADAEKKQQCSFKGKDPQRDCQNYIKILLPLSGSHLFTCGTAAFSPMCTYINMENFTLARDEKGNVLLEDGKGRCPFDPNFKSTALVVDGELYTGTVSSFQGNDPAISRSQSLRPTKTESSLNWLQDPAFVASAYIPESLGSLQGDDDKIYFFFSETGQEFEFFENTIVSRIARICKGDEGGERVLQQRWTSFLKAQLLCSRPDDGFPFNVLQDVFTLSPSPQDWRDTLFYGVFTSQWHRGTTEGSAVCVFTMKDVQRVFSGLYKEVNRETQQWYTVTHPVPTPRPGACITNSARERKINSSLQLPDRVLNFLKDHFLMDGQVRSRMLLLQPQARYQRVAVHRVPGLHHTYDVLFLGTGDGRLHKAVSVGPRVHIIEELQIFSSGQPVQNLLLDTHRGLLYAASHSGVVQVPMANCSLYRSCGDCLLARDPYCAWSGSSCKHVSLYQPQLATRPWIQDIEGASAKDLCSASSVVSPSFVPTGEKPCEQVQFQPNTVNTLACPLLSNLATRLWLRNGAPVNASASCHVLPTGDLLLVGTQQLGEFQCWSLEEGFQQLVASYCPEVVEDGVADQTDEGGSVPVIISTSRVSAPAGGKASWGADRSYWKEFLVMCTLFVLAVLLPVLFLLYRHRNSMKVFLKQGECASVHPKTCPVVLPPETRPLNGLGPPSTPLDHRGYQSLSDSPPGSRVFTESEKRPLSIQDSFVEVSPVCPRPRVRLGSEIRDSVV [SEMA4B]”, the “solubility change mitosis (log2)” value in the data set on HeLa Kyoto [1] is -0.0944. The “solubility in G1/S (log2)” value in the data set with HeLa Kyoto [2] was found to be 0.234.

For the sequence “MLTEASLSIWGWGSLGIVLFLITFGPFVIFYLTFYILCFVGGGLVVTLLFGKTNSEKYLEQCEHSFLPPTSPGVPKCLEEMKREARTIKIDRRLTGANIIDEPLQQVIQFSLRDYVQYWYYTLSDDESFLLEIRQTLQNALIQFATRSKEIDWQPYFTTRIVDDFGTHLRVFRKAQQKITEKDDQVKGTAEDLVDTFFEVEVEMEKEVCRDLVCTSPKDEEGFLRDLCEVLLYLLLPPGDFQNKIMRYFVREILARGILLPLINQLSDPDYINQYVIWMIRDSNCNYEAFMNIIKLSDNIGELEAVRDKAAEELQYLRSLDTAGDDINTIKNQINSLLFVKKVCDSRIQRLQSGKEINTVKLAANFGKLCTVPLDSILVDNVALQFFMDYMQQTGGQAHLFFWMTVEGYRVTAQQQLEVLLSRQRDGKHQTNQTKGLLRAAAVGIYEQYLSEKASPRVTVDDYLVAKLADTLNHEDPTPEIFDDIQRKVYELMLRDERFYPSFRQNALYVRMLAELDMLKDPSFRGSDDGDGESFNGSPTGSINLSLDDLSNVSSDDSVQLHAYISDTVYADYDPYAVAGVCNDHGKTYALYAITVHRRNLNSEEMWKTYRRYSDFHDFHMRITEQFESLSSILKLPGKKTFNNMDRDFLEKRKKDLNAYLQLLLAPEMMKASPALAHYVYDFLENKAYSKGKGDFARKMDTFVNPLRNSMRNVSNAVKSLPDSLAEGMTKMSDNMGKMSERLGQDIKQSFFKVPPLIPKTDSDPEHRRVSAQLDDNVDDNIPLRVMLLLMDEVFDLKERNQWLRRNIKNLLQQLIRATYGDTINRKIVDHVDWMTSPEQVADSVKRFRDAFWPNGILAEAVPCRDKSIRMRTRVAGKTKLLAIMPDELKHIIGAETTRKGILRVFEMFQHNQLNRRMVYVFLEGFLETLFPQYKFRELFNKLHSRSKQMQKYKQKLQTTQAPSLQKR [SNX13]”, in the data set on HeLa Kyoto [1], the “solubility change mitosis (log2)” value is -0.0268. For the same sequence, the “solubility in G1/S (log2)” value with HeLa Kyoto [2] was -0.221.

Regarding “MLWLALGPFPAMENQVLVIRIKIPNSGAVDWTVHSGPQLLFRDVLDVIGQVLPEATTTAFEYEDEDGDRITVRSDEEMKAMLSYYYSTVMEQQVNGQLIEPLQIFPRACKPPGERNIHGLKVNTRAGPSQHSSPAVSDSLPSNSLKKSSAELKKILANGQMNEQDIRYRDTLGHGNGGTVYKAYHVPSGKILAVKVILLDITLELQKQIMSELEILYKCDSSYIIGFYGAFFVENRISICTEFMDGGSLDVYRKMPEHVLGRIAVAVVKGLTYLWSLKILHRDVKPSNMLVNTRGQVKLCDFGVSTQLVNSIAKTYVGTNAYMAPERISGEQYGIHSDVWSLGISFMELALGRFPYPQIQKNQGSLMPLQLLQCIVDEDSPVLPVGEFSEPFVHFITQCMRKQPKERPAPEELMGHPFIVQFNDGNAAVVSMWVCRALEERRSQQGPP [MAP2K5]”, the “solubility change mitosis (log2)” value with HeLa Kyoto [1] is -0.109. The “solubility in G1/S (log2)” value in the data set with HeLa Kyoto [2] was determined as 0.128.

In the case of “MMKKKKFKFKVDFELEELSSVPFVNGVLFCKMRLLDGGSFTAESSREVVQANCVRWRKKFSFMCKMSASAATGILDPCIYRVSVRKELKGGKAYAKLGFADLNLAEFAGSGNTTRRCLLEGYDTKNTRQDNSILKVLISMQLMSGDPCFKTPPSTSMSIPIAGESESLQEDRKGGETLKVHLGIADLSAKSASVPDELGACGHSRTSSYASQQSKVSGYSTCHSRSSSFSELCHRRNTSVGSTSTGVESILEPCDEIEQKIAEPNLDTADKEDTASEKLSRCPVKQDSVESQLKRVDDTRVDADDIVEKILQSQDFSLDSSAEEEGLRLFVGPGGSTTFGSHHLPNRVGSGAYEQVVIKR [FAM102B]”, in the data set with HeLa Kyoto [1], the “solubility change mitosis (log2)” value is 0.0662. For the same sequence, the “solubility in G1/S (log2)” value in the data set with HeLa Kyoto [2] was -0.233.

For “MMWRPSVLLLLLLLRHGAQGKPSPDAGPHGQGRVHQAAPLSDAPHDDAHGNFQYDHEAFLGREVAKEFDQLTPEESQARLGRIVDRMDRAGDGDGWVSLAELRAWIAHTQQRHIRDSVSAAWDTYDTDRDGRVGWEELRNATYGHYAPGEEFHDVEDAETYKKMLARDERRFRVADQDGDSMATREELTAFLHPEEFPHMRDIVIAETLEDLDRNKDGYVQVEEYIADLYSAEPGEEEPAWVQTERQQFRDFRDLNKDGHLDGSEVGHWVLPPAQDQPLVEANHLLHESDTDKDGRLSKAEILGNWNMFVGSQATNYGEDLTRHHDEL [RCN3]”, in the data set on HeLa Kyoto [1], the “solubility change mitosis (log2)” value worked out at 0.262. Moreover, in the data set with HeLa Kyoto [2], the “solubility in G1/S (log2)” value stood at 0.0765.

For “MNDISQKAEILLSSSKPVPKTYVPKLGKGDVKDKFEAMQRAREERNQRRSRDEKQRRKEQYIREREWNRRKQEIKEMLASDDEEDVSSKVEKAYVPKLTGTVKGRFAEMEKQRQEEQRKRTEEERKRRIEQDMLEKRKIQRELAKRAEQIEDINNTGTESASEEGDDSLLITVVPVKSYKTSGKMKKNFEDLEKEREEKERIKYEEDKRIRYEEQRPSLKEAKCLSLVMDDEIESEAKKESLSPGKLKLTFEELERQRQENRKKQAEEEARKRLEEEKRAFEEARRQMVNEDEENQDTAKIFKGYRPGKLKLSFEEMERQRREDEKRKAEEEARRRIEEEKKAFAEARRNMVVDDDSPEMYKTISQEFLTPGKLEINFEELLKQKMEEEKRRTEEERKHKLEMEKQEFEQLRQEMGEEEEENETFGLSREYEELIKLKRSGSIQAKNLKSKFEKIGQLSEKEIQKKIEEERARRRAIDLEIKEREAENFHEEDDVDVRPARKSEAPFTHKVNMKARFEQMAKAREEEEQRRIEEQKLLRMQFEQREIDAALQKKREEEEEEEGSIMNGSTAEDEEQTRSGAPWFKKPLKNTSVVDSEPVRFTVKVTGEPKPEITWWFEGEILQDGEDYQYIERGETYCLYLPETFPEDGGEYMCKAVNNKGSAASTCILTIESKN [NEXN]”, the “solubility change mitosis (log2)” value with HeLa Kyoto [1] amounted to 0.21. For the same sequence, the “solubility in G1/S (log2)” value with HeLa Kyoto [2] is -0.858.

Regarding “MNFTPTHTPVCRKRTVVSKRGVAVSGPTKRRGMADSLESTPLPSPEDRLAKLHPSKELLEYYQKKMAECEAENEDLLKKLELYKEACEGQHKLECDLQQREEEIAELQKALSDMQVCLFQEREHVLRLYSENDRLRIRELEDKKKIQNLLALVGTDAGEVTYFCKEPPHKVTILQKTIQAVGECEQSESSAFKADPKISKRRPSRERKESSEHYQRDIQTLILQVEALQAQLGEQTKLSREQIEGLIEDRRIHLEEIQVQHQRNQNKIKELTKNLHHTQELLYESTKDFLQLRSENQNKEKSWMLEKDNLMSKIKQYRVQCKKKEDKIGKVLPVMHESHHAQSEYIKSLKDKLVQEKKLSNMYQEQCISLEEELARIREEEGMRREIFKDRTNKMGKRLQIMTKRYEALERRRILEVEGFKTDIKVLRQKLKDLEQMLYKATVNARANQDLALLCEVRDSNRRAHKIQGELKNLKSKVFGLENELRLC [CCDC77]”, the “solubility change mitosis (log2)” value in the data set on HeLa Kyoto [1] turned out to be 0.373. The “solubility in G1/S (log2)” value with HeLa Kyoto [2] is -0.0939.

As for “MNGFTPDEMSRGGDAAAAVAAVVAAAAAAASAGNGTGAGTGAEVPGAGAVSAAGPPGAAGPGPGQLCCLREDGERCGRAAGNASFSKRIQKSISQKKVKIELDKSARHLYICDYHKNLIQSVRNRRKRKGSDDDGGDSPVQDIDTPEVDLYQLQVNTLRRYKRHFKLPTRPGLNKAQLVEIVGCHFRSIPVNEKDTLTYFIYSVKNDKNKSDLKVDSGVH [SAP30]”, the “solubility change mitosis (log2)” value in the data set on HeLa Kyoto [1] was 0.267. Besides, in the data set on HeLa Kyoto [2], the “solubility in G1/S (log2)” value came to 0.247.
